Biological target: MIS type II receptor (MISRII) (human) (UniProt Q16671)
Assay: cell-based or functional assay

Chain of UniProt Q16671 (Q16671 18-573): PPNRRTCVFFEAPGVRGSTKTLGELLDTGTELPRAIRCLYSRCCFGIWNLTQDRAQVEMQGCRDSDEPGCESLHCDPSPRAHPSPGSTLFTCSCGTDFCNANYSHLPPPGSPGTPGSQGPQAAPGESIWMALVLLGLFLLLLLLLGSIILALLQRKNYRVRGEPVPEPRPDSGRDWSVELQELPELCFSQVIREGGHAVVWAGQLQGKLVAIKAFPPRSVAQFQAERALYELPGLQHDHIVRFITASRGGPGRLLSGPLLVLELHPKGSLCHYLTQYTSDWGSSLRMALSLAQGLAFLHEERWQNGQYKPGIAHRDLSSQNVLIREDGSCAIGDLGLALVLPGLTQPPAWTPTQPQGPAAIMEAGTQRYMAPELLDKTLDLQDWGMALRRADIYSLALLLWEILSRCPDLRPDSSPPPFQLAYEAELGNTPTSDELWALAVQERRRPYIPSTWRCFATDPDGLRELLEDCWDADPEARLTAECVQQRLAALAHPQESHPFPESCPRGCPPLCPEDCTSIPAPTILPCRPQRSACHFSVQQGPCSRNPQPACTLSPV

| decrease in cell proliferation (cultured endometrial cells transiently transfected with an MIS protein expression construct) [%] | Substance | decrease in viable cells (cultured endometrial cells, rhMIS 100 ng/mL, 72 hours) [%] |
| --- | --- | --- |
| 8 | MIS over-expressed from an MIS protein expression construct (ligand) | – |
| – | rhMIS (R&D Systems, Minneapolis, Minn.) (from UniProt P03971 452-560) (ligand) | 14 |

From patent US20120225824A1
